Measurements published in patent publication US20240050475A1.

Molecular target: human PRDX4 present on the cell surface of cancer cells (human) (UniProt Q13162)
Experiment: flow cytometry on ES-2 cells, control staining

Sequence of UniProt Q13162 (Q13162 38-271 limits assumed): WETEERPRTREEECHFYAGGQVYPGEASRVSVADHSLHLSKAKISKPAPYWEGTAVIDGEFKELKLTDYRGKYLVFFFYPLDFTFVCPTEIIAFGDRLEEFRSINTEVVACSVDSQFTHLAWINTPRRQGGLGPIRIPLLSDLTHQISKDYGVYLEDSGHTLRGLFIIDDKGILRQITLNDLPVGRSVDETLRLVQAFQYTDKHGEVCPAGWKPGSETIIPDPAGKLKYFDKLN

mean (flow cytometry): 159
Substance: isotype antibody
